The Kd is a measure of binding affinity in units of concentration.

The values that follow come from publication PMC9793311, “Negative cooperativity underlies dynamic assembly of the Par complex regulators Cdc42 and Par-3” (The Journal of Biological Chemistry, 2022).

The labels stand for the following.
T1: Par complex (Drosophila melanogaster, UniProt O97111 1-351; A1Z9X0 1-606)
T1 construct: atypical PKC (aPKC), Drosophila melanogaster, residues 1-606, from pCMV aPKC; also called Par-6/aPKC; intact Par complex
T1 sequence (looked up) 1: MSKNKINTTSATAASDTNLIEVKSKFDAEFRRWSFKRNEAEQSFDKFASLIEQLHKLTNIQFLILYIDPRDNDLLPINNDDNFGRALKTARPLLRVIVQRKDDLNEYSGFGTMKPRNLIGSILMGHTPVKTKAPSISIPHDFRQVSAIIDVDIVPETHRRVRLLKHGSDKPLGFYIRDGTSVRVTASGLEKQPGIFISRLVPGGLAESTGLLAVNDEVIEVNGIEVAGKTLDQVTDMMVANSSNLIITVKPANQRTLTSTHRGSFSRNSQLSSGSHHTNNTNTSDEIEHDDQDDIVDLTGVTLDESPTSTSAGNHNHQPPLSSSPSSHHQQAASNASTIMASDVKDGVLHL
T1 sequence (looked up) 2: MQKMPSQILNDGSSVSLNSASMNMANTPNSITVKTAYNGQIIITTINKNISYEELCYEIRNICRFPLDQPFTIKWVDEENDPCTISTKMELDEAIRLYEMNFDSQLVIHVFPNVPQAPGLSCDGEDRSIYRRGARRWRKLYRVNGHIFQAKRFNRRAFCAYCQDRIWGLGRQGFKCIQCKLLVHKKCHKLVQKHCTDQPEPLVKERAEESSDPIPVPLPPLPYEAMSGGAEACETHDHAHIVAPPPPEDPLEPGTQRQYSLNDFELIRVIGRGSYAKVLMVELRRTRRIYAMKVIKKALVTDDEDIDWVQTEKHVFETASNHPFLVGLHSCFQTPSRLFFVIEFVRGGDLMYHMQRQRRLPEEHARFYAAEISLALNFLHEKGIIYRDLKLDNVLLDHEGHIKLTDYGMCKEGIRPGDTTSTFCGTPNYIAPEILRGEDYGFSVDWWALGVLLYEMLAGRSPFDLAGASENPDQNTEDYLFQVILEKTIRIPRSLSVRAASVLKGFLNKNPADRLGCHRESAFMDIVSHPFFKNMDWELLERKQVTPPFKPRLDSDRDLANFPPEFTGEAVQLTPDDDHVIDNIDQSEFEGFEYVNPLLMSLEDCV

B1: GST-Par-3 PDZ3 (domain or fragment, Drosophila melanogaster, UniProt O96782 616-741, looked up)
chain: HSREELTLHIPVHDTEKAGLGVSVKGKTCSNLNASGSSASSGSNGLMKHDGDLGIFVKNVIHGGAASRDGRLRMNDQLLSVNGVSLRGQNNAEAMETLRRAMVNTPGKHPGTITLLVGRKILRSAS
notes: Par-3 (Bazooka), Drosophila melanogaster, PDZ3, residues 616-741, from pGEX; source: E. coli BL21-DE3, lysate adsorbed to glutathione resin and washed; not shown: GST, N-terminal, kept
B2: MBP-Par-3 PDZ1-APM ΔPDZ3 (domain or fragment, Drosophila melanogaster, UniProt O96782 309-987, looked up)
chain: DGEMLLIINEYGSPLGLTALPDKEHGGGLLVQHVEPGSRAERGQLRRDDRILEINGIKLIGLTESQVQEQLRRALESSELRVRVLRGDRNRRQQRDSKVADMVEVATVSPTRKPHAAPVGTSLQVANTRKLGRKIQIMLKKGPNGLGFSVTTRDNPAGAHCPIYIKNILPRGAAIEDGRLKPGDRLLEVDGTPMTGKTQTDVVAILRGMPAGATVRIVVSRQQELAEQADQPAEKSAGVAVAPSVAPPAVPAAAAPAPPIPVQKSSSARSLFTHQQQSQLNESQHFIDAGSESAASNDSLPPSSNSWSSDILDHSNSHSHSHSNSSGGSNSNGSGNNNNSSSNASDNSGATVIYLSPEKREQRCNGGGGGGSAGNEMNRWSNPVLDRLTGGICSSNSAQPSSQQSHQQQPHPSQQQQQQRRLPAAPVCSSAALRNESYYMATNDNWSPAQMHLMTAHGNTALLIEDDAEPMSPTLPARPHDGQHCNTSSANPSQNLAVGNQGPPINTVPGTPSTSSNFDATYSSQLSLETNSGVEHFSRDALGRRSISEKHHA
notes: Par-3 (Bazooka), Drosophila melanogaster, residues 309-987 with 616-741 deleted, from pMAL Par-3 309-987 Δ616-741-His; source: E. coli BL21-DE3, His-purified
B3: His-Par-3 PDZ2 (domain or fragment, Drosophila melanogaster, UniProt O96782 444-533, looked up)
chain: QIMLKKGPNGLGFSVTTRDNPAGAHCPIYIKNILPRGAAIEDGRLKPGDRLLEVDGTPMTGKTQTDVVAILRGMPAGATVRIVVSRQQEL
notes: Par-3 (Bazooka), Drosophila melanogaster, PDZ2, residues 444-533, from pET19; source: E. coli BL21-DE3, His-purified
B4: MBP-Par-3 PDZ1-APM ΔPDZ1 (domain or fragment, Drosophila melanogaster, UniProt O96782 393-987, looked up)
chain: LRGDRNRRQQRDSKVADMVEVATVSPTRKPHAAPVGTSLQVANTRKLGRKIQIMLKKGPNGLGFSVTTRDNPAGAHCPIYIKNILPRGAAIEDGRLKPGDRLLEVDGTPMTGKTQTDVVAILRGMPAGATVRIVVSRQQELAEQADQPAEKSAGVAVAPSVAPPAVPAAAAPAPPIPVQKSSSARSLFTHQQQSQLNESQHFIDAGSESAASNDSLPPSSNSWHSREELTLHIPVHDTEKAGLGVSVKGKTCSNLNASGSSASSGSNGLMKHDGDLGIFVKNVIHGGAASRDGRLRMNDQLLSVNGVSLRGQNNAEAMETLRRAMVNTPGKHPGTITLLVGRKILRSASSSDILDHSNSHSHSHSNSSGGSNSNGSGNNNNSSSNASDNSGATVIYLSPEKREQRCNGGGGGGSAGNEMNRWSNPVLDRLTGGICSSNSAQPSSQQSHQQQPHPSQQQQQQRRLPAAPVCSSAALRNESYYMATNDNWSPAQMHLMTAHGNTALLIEDDAEPMSPTLPARPHDGQHCNTSSANPSQNLAVGNQGPPINTVPGTPSTSSNFDATYSSQLSLETNSGVEHFSRDALGRRSISEKHHA
notes: Par-3 (Bazooka), Drosophila melanogaster, residues 393-987, from pMAL Par-3 393-987-His; source: E. coli BL21-DE3, His-purified
B5: GST-Cdc42^Q61L (natural protein)
chain: not shown
notes: Cdc42, Drosophila melanogaster, residues 1-191 with Q61L, from pGEX; Nucleotide state is not described; Q61L is called constitutively active; also called GST-fused Cdc42Q61L; solid phase Cdc42^Q61L; source: E. coli BL21-DE3, lysate adsorbed to glutathione resin and washed; not shown: GST, N-terminal, kept
B6: MBP-Par-3 PDZ1-APM (domain or fragment, Drosophila melanogaster, UniProt O96782 309-987, looked up)
chain: DGEMLLIINEYGSPLGLTALPDKEHGGGLLVQHVEPGSRAERGQLRRDDRILEINGIKLIGLTESQVQEQLRRALESSELRVRVLRGDRNRRQQRDSKVADMVEVATVSPTRKPHAAPVGTSLQVANTRKLGRKIQIMLKKGPNGLGFSVTTRDNPAGAHCPIYIKNILPRGAAIEDGRLKPGDRLLEVDGTPMTGKTQTDVVAILRGMPAGATVRIVVSRQQELAEQADQPAEKSAGVAVAPSVAPPAVPAAAAPAPPIPVQKSSSARSLFTHQQQSQLNESQHFIDAGSESAASNDSLPPSSNSWHSREELTLHIPVHDTEKAGLGVSVKGKTCSNLNASGSSASSGSNGLMKHDGDLGIFVKNVIHGGAASRDGRLRMNDQLLSVNGVSLRGQNNAEAMETLRRAMVNTPGKHPGTITLLVGRKILRSASSSDILDHSNSHSHSHSNSSGGSNSNGSGNNNNSSSNASDNSGATVIYLSPEKREQRCNGGGGGGSAGNEMNRWSNPVLDRLTGGICSSNSAQPSSQQSHQQQPHPSQQQQQQRRLPAAPVCSSAALRNESYYMATNDNWSPAQMHLMTAHGNTALLIEDDAEPMSPTLPARPHDGQHCNTSSANPSQNLAVGNQGPPINTVPGTPSTSSNFDATYSSQLSLETNSGVEHFSRDALGRRSISEKHHA
notes: Par-3 (Bazooka), Drosophila melanogaster, residues 309-987 (PDZ1 to the aPKC phosphorylation motif), from pMAL Par-3 309-987-His; also called MBP-Par-3 PDZ1-APM-His; Bazooka; source: E. coli BL21-DE3; His-purified (soluble phase) or lysate adsorbed to amylose resin and washed (solid phase); not shown: MBP, N-terminal, kept
B7: His-Par-6 CRIB-PDZ (domain or fragment, Drosophila melanogaster, UniProt O97111 130-255, looked up)
chain: KTKAPSISIPHDFRQVSAIIDVDIVPETHRRVRLLKHGSDKPLGFYIRDGTSVRVTASGLEKQPGIFISRLVPGGLAESTGLLAVNDEVIEVNGIEVAGKTLDQVTDMMVANSSNLIITVKPANQR
notes: Par-6, Drosophila melanogaster, CRIB-PDZ, residues 130-255, from pBH; chosen because the methods name GST-Cdc42^Q61L as the solid phase; source: E. coli BL21-DE3, His-purified
B8: His-Par-3 BR-PDZ2 (domain or fragment, Drosophila melanogaster, UniProt O96782 426-533, looked up)
chain: PVGTSLQVANTRKLGRKIQIMLKKGPNGLGFSVTTRDNPAGAHCPIYIKNILPRGAAIEDGRLKPGDRLLEVDGTPMTGKTQTDVVAILRGMPAGATVRIVVSRQQEL
notes: Par-3 (Bazooka), Drosophila melanogaster, basic region and PDZ2, residues 426-533, from pET19; source: E. coli BL21-DE3, His-purified

Holding throughout (settings): both partners purified
Assay [1] deals with T1, Par complex. As to the kind of experiment: pull-down; GST-fused protein on glutathione resin (from bacterial lysate, washed 4x); soluble purified proteins added, 60 min at room temperature; 20 mM Hepes pH 7.5, 100 mM NaCl, 5 mM MgCl2, 0.5% Tween-20, 1 mM DTT, 200 uM ATP; Coomassie-stained gel.
The target in assay [2] is T1, Par complex. The assay can be described thus: supernatant depletion; GST-Cdc42^Q61L on GSH resin (ligand), soluble Par complex (receptor), 60 min at room temperature; 20 mM Hepes pH 7.5, 100 mM NaCl, 5 mM MgCl2, 0.5% Tween-20, 1 mM DTT, 200 uM ATP; KD from the fraction depleted at one dilution, in sextuplicate.
Assay [3] addresses T1, Par complex. As to the kind of experiment: supernatant depletion; MBP-Par-3 PDZ1-APM on amylose resin (ligand), soluble Par complex (receptor), 10 min at room temperature; 20 mM Hepes pH 7.5, 100 mM NaCl, 5 mM MgCl2, 0.5% Tween-20, 1 mM DTT, 200 uM ATP; KD from the fraction depleted at one dilution, in sextuplicate.
For assay [4], the target named is B5. As to the kind of experiment: supernatant depletion; Cdc42 with Par-6 CRIB-PDZ (Figure S1); the text does not say which of the two was on the resin; buffer as for the other supernatant depletion assays.

GST-Cdc42^Q61L, sequence (P40793 whole entry Q61L, the tested form may be a part): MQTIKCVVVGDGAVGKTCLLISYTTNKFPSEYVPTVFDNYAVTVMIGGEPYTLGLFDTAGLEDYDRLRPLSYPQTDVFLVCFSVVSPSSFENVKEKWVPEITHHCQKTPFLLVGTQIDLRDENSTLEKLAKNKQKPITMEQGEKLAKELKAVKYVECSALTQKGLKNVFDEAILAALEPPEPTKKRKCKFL

With B1, the binding result in assay [1] was “binds”.

Regarding B2, the binding result in assay [1] is “binds”.

With B3, the binding result in assay [1] is “binds”.

For the molecule B4, the binding result in assay [1] was “binds”.

As to B5, the Kd in assay [2] came out at 5400 nM.

B6 had a Kd in assay [3] of 600 nM.

Take B7: binding in assay [4] was put at a Kd of 2300 nM.

B8: the binding result in assay [1] was “binds”.
